Results on 1 molecule are retold here after patent US10555972 (INNOPEUTICS, dated 2020).

This test addresses T1, Nuclear receptor-related factor 1 (Nurr1) (mouse, UniProt Q06219 1-598).
T1 construct: Endogenous transcription factor in mouse ventral midbrain lysates (IP) or frozen tissue sections (PLA); not a recombinant construct; also called NR4A2
The test can be described thus: reciprocal co-immunoprecipitation and Western blot, midbrain lysates of 10-week-old mice. As for the experimental part: Interaction between Nurr1 and Foxa2 (in mouse VM tissues at 10 weeks of age) was assessed by an IP. Tissues were lysed in IP lysis buffer (Thermo Scientific, Waltham, Mass.) supplemented with protease inhibitors. Lysates were incubated with an anti-Nurr1 antibody (1:1,000, mouse, R&D Systems) or an anti-Foxa2 antibody (1:1,000, goat, Santa Cruz Biotechnology) at 4° C. for 18-24 hours. The mixtures were shaken with magnetic beads (Life Technologies) at room temperature for 1-2 hours. After washing, immunoprecipitated proteins were eluted in a sample buffer and subjected to a Western blot analysis using an anti-Foxa2 antibody (1:1,000, goat, Cell Signaling Technology) or an anti-Nurr1 antibody (1:500, mouse, R&D Systems).
Close physical interaction of these two proteins was confirmed by an in situ proximity ligation assay (PLA), which allows visualization of protein-protein binding by red fluorescence (554 nm) emanating from two proteins in close proximity (FIG. 2E).

T1 sequence (Q06219 whole entry): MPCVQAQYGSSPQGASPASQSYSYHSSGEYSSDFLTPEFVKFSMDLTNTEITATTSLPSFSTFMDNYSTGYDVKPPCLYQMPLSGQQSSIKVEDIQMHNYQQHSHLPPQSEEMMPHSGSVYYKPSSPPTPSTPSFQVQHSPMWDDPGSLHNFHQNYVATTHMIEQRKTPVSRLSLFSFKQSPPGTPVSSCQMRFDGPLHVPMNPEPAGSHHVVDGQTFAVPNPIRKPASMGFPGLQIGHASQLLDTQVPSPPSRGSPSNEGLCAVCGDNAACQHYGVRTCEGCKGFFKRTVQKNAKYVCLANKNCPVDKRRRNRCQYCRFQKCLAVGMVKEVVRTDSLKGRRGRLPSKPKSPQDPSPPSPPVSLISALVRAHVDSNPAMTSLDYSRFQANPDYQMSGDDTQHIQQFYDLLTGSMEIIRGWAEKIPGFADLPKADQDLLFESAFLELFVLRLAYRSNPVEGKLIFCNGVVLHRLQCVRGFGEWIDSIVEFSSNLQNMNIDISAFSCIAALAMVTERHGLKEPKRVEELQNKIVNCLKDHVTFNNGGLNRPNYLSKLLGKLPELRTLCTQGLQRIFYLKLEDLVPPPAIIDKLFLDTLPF

B1: forkhead box protein A2 (Foxa2) (other, mouse, UniProt P35583 1-459, looked up)
chain: MLGAVKMEGHEPSDWSSYYAEPEGYSSVSNMNAGLGMNGMNTYMSMSAAAMGGGSGNMSAGSMNMSSYVGAGMSPSLAGMSPGAGAMAGMSGSAGAAGVAGMGPHLSPSLSPLGGQAAGAMGGLAPYANMNSMSPMYGQAGLSRARDPKTYRRSYTHAKPPYSYISLITMAIQQSPNKMLTLSEIYQWIMDLFPFYRQNQQRWQNSIRHSLSFNDCFLKVPRSPDKPGKGSFWTLHPDSGNMFENGCYLRRQKRFKCEKQLALKEAAGAASSGGKKTAPGSQASQAQLGEAAGSASETPAGTESPHSSASPCQEHKRGGLSELKGAPASALSPPEPAPSPGQQQQAAAHLLGPPHHPGLPPEAHLKPEHHYAFNHPFSINNLMSSEQQHHHSHHHHQPHKMDLKAYEQVMHYPGGYGSPMPGSLAMGPVTNKAGLDASPLAADTSYYQGVYSRPIMNSS
notes: Endogenous transcription factor in mouse ventral midbrain lysates (IP) or frozen tissue sections (PLA); not a recombinant construct
On to B1, for which the binding result was “binds”.
